This note sets out measurements from patent publication US20240033244A1, “COMPOSITIONS AND METHODS FOR INHIBITING YTHDF1” (SHANGHAI INSTITUTE OF MATERIA MEDICA, CHINESE ACADEMY OF …, priority 2020, published 2024).

The test system of one data set is B16-OVA melanoma. Description: B16-OVA tumor growth in wild-type mice. Type of data set: in vivo, mouse. To be noted: 5×10^5 B16-OVA in C57BL/6 mice, 10 μM i.v. 9 days after implantation (FIG. 19).
The target of a further data set is T1, YTHDF1 (361-559) H528A (UniProt Q9BYJ9 SEQ:3-201, H528A).
T1 sequence: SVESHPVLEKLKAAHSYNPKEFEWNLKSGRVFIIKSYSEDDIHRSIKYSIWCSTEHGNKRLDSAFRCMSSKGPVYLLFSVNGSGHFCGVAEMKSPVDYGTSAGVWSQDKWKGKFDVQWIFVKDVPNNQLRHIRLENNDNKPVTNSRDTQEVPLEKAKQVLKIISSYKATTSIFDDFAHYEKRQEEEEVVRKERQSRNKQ
As to the kind of experiment: FP; value only in figure; affinity not influenced vs wild type. To be noted: tags: GST tag removed; label: 5'-FAM.

Another data set addresses T2, YTHDF1 (361-559) F480A (UniProt Q9BYJ9 SEQ:3-201, F480A).
T2 sequence: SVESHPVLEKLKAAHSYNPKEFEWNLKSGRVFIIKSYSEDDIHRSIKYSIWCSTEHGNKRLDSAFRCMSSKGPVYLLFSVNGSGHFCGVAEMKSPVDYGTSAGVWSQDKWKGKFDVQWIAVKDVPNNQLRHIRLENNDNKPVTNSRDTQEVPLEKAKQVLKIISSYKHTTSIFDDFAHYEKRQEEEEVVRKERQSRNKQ
The description is as above. Particulars: tags: GST tag removed; label: 5'-FAM.

In data set [1] the target is T3, YTHDF1 C-terminal truncation (UniProt Q9BYJ9 SEQ:3-174).
T3 chain: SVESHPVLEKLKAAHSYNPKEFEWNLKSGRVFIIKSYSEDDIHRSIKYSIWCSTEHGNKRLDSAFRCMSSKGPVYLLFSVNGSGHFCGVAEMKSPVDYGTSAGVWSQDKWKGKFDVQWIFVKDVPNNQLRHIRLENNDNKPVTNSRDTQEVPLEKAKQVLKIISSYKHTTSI
The description is as above. To be noted: tags: GST tag removed; label: 5'-FAM.

The target in another data set is T4, YTHDF1 (361-559) N378A (UniProt Q9BYJ9 SEQ:3-201, N378A).
T4 sequence: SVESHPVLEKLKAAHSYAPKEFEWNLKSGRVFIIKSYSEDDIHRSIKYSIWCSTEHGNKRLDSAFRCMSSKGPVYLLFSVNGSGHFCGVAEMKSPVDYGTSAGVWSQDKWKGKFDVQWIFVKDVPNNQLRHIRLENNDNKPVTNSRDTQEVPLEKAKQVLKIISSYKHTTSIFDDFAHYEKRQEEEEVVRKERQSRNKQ
The description is as above. To be noted: tags: GST tag removed; label: 5'-FAM.

The next data set deals with T5, YTHDF1 (361-559) W384A (UniProt Q9BYJ9 SEQ:3-201, W384A).
T5 sequence: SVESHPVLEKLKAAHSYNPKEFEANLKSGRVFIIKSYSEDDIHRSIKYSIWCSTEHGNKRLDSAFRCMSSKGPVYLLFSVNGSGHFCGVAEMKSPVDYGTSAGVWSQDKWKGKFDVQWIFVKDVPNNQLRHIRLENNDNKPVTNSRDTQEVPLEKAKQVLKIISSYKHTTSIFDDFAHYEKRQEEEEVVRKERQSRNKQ
Described as above. Particulars: tags: GST tag removed; label: 5'-FAM.

The next data set has as its target T6, YTHDF1 (361-559) F382A (UniProt Q9BYJ9 SEQ:3-201, F382A).
T6 sequence: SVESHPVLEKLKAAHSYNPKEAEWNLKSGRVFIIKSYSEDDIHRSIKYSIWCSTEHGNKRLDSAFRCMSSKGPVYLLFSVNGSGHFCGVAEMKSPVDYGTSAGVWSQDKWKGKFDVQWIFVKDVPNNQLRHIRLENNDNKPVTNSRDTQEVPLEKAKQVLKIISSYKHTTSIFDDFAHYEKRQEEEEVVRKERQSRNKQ
The data set is described as above. To be noted: tags: GST tag removed; label: 5'-FAM.

A further data set deals with T7, YTHDF1 (361-559) R506A (UniProt Q9BYJ9 SEQ:3-201).
T7 chain: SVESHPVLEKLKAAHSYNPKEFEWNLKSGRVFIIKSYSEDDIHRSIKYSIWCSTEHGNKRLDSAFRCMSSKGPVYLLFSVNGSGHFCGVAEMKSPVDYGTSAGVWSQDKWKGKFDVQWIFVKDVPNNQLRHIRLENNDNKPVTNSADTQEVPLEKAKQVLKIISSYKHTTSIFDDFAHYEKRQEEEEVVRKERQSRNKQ
Description: FP; binding seen through SAA inhibition assay; affinity not given. To be noted: tags: GST tag removed; label: 5'-FAM.

The target in the next data set is T8, YTHDF1 (361-559) K395A (UniProt Q9BYJ9 SEQ:3-201).
T8 chain: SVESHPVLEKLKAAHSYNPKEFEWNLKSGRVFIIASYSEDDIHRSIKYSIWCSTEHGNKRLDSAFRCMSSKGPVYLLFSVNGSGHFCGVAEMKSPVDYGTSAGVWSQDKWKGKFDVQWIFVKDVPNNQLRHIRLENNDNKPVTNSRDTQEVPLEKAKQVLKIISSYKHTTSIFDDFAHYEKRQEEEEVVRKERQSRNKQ
The data set is described as above. To be noted: tags: GST tag removed; label: 5'-FAM.

A further data set addresses T9, YTHDF1 (361-559) C412A (UniProt Q9BYJ9 SEQ:3-201).
T9 chain: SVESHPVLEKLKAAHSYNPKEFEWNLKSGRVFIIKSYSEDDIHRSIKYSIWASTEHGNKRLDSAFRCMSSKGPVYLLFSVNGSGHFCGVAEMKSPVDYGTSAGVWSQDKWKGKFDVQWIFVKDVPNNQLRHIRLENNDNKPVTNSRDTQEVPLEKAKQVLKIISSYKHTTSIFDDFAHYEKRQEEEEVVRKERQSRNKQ
The data set is described as above. To be noted: tags: GST tag removed; label: 5'-FAM.

A further data set deals with T10, YTHDF1 (361-559) Y397A (UniProt Q9BYJ9 SEQ:3-201).
T10 chain: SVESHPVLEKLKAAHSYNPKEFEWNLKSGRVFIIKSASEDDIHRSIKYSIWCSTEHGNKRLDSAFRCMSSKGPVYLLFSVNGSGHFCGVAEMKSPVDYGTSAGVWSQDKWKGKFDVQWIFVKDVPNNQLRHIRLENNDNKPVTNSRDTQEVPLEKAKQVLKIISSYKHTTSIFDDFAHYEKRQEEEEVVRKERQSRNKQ
The description is as above. Particulars: tags: GST tag removed; label: 5'-FAM.

In data set [2] the target is T11, YTHDF1 (361-559), YTH domain (UniProt Q9BYJ9 SEQ:3-201).
T11 sequence: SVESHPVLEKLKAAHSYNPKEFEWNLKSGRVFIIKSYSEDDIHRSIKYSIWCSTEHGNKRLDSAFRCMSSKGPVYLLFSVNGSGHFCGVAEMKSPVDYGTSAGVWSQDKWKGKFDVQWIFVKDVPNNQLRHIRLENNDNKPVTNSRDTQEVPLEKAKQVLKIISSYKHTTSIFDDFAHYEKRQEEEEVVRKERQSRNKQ
Description: FP; value only in figure; 20 mM Hepes pH 7.4, 50 mM NaCl, 0.01% tween 20, 5% glycerol, 4 C. Particulars: tags: GST tag removed; E. coli BL21(DE3); label: 5'-FAM.

For another data set, the target named is T12, His-YTHDF1 (361-559) (UniProt Q9BYJ9 SEQ:40-238).
T12 sequence: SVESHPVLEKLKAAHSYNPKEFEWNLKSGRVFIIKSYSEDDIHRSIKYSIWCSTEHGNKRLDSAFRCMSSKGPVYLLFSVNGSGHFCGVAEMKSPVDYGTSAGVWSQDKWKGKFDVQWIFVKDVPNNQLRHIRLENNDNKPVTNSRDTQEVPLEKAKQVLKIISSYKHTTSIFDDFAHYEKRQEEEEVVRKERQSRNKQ
As to the kind of experiment: AlphaScreen; 20 mM Hepes pH 7.4, 150 mM NaCl, BSA, TritonX-100; binding inhibited by SAA. To be noted: tags: His; label: 5'-biotin. On the procedure:
Then 10 nM biotinylated m⁶A-containing mRNA (5′-biotin-[…] (m⁶A) CUGUG-3′) (SEQ ID NO: 15) was added to bind with YTHDF1 (361-559), and unbiotinylated m⁶A-containing mRNA was used as the positive control. Before Alpha signal detection, streptavidin donor beads and anti-His acceptor beads were added into the white assay plate in subdued light (OptiPlate™-384, PerkinElmer) and incubated at 4° C. for 1 hour to ensure sufficient binding between biotin tag and streptavidin donor beads, as well as that between His tag and anti-His acceptor beads. Then the Alpha signal was detected on Envision Readers (PerkinElmer).

`O=C(/C=C/c1ccc(O)c2oc(-c3ccc(O)c(O)c3)cc12)O[C@H](Cc1ccc(O)c(O)c1)C(=O)O` [SAC, Salvianolic Acid C]: the “tumor growth versus DMSO” value in the data set with B16-OVA melanoma is “tumor growth was much slower”.

B1: 5'-FAM m6A-containing mRNA (ssRNA)
RNA: UUCUUCUGUGGACUGUG
modifications: m6A at position 12 (UUCUUCUGUGG(m6A)CUGUG)
Take B1: the binding result (with YTHDF1 (361-559) H528A; with YTHDF1 (361-559) F480A; in data set [1]; in the data set with YTHDF1 (361-559) N378A; in the data set with YTHDF1 (361-559) W384A; in the data set with YTHDF1 (361-559) F382A) was “binds” each time. Besides, the binding result (with YTHDF1 (361-559) R506A; with YTHDF1 (361-559) K395A; with YTHDF1 (361-559) C412A; in the data set with YTHDF1 (361-559) Y397A; in data set [2]) was “binds” throughout.

B2: 5'-biotin m6A-containing mRNA (ssRNA)
RNA: UUCUUCUGUGGACUGUG
modifications: m6A at position 12 (UUCUUCUGUGG(m6A)CUGUG)
Consider B2, for which, in the data set with His-YTHDF1 (361-559), the binding result is “binds”.
